Reference: the nanobody polyreactivity screen of Harvey et al. (2022)

Assay: yeast display, Sf9 membrane polyspecificity reagent, FACS + sequencing; frameworks hold sequencing errors
Summary of the method: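 Galactose induction of a Saccharomyces cerevisiae BJ5465 synthetic nanobody display library ran 36–48 hours. The cells were then stained for 1 hour at 4 °C with 10% biotinylated, detergent-solubilized Sf9 membrane reagent, pulled down on streptavidin microbeads and FACS-sorted into low and high (top ~1%) gates on expression and reagent-binding fluorescence. Labels for polyreactivity follow the gate of origin.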

QVQLVESGGGLVQAGGSLRLSCAASGSIFVSNAMGWYRQAPGKERELVASISQDGGSTYYADSVKGRFTISRDNAKNTVYLQMNSLKPEDTADYYCAAKAEYYYYNGGTTYLVRYYYWGQGTQVTVSS
polyreactivity (PSR sort gate): low polyreactivity

QVQLVESGGGLVQAGGSLRLSCAASGSTIEDYAMGWYRQAPGKERELVAAISWRSDITYYADSVKGRFTISRDNAKNTVYLQMNSLKPEDTAVYYCAADNSYHWLDREFDYEFDYWGQGTQVTVSS
polyreactivity (PSR sort gate): high polyreactivity

QVHLVESGGGLVQAGGSLRLSCAASGSTFVANTMRWSRQAPGKERELVASITSGDSTNYADSVKGRFTISRDNAKNTVYLQMNSLKPEDTAVYYCSAETVWYYVGGQLIYYSWGQGTQVTVSS
polyreactivity (PSR sort gate): low polyreactivity

QVQLVESGGGLVQAGGSLRLSCAASGRIFGGYAMGWYRQAPGKERELVAAISWRGGTTYYADSVKGRFTISRDNAKNTVYLQMNSLKQEDTAVYYCNADVVRYRHWHRGDYWGQGTQVTVSS
polyreactivity (PSR sort gate): low polyreactivity

QVQLVESGGGLVQAGGSLRLSCAASGYTYWQYAMGWYRQAPGKERELVATITSRGGSTYYADSVKGRFTISRDNAKNTVYLQMNSLIPEDTAVYYCNARRRYSTRRSDYWGQGTQVTVSS
polyreactivity (PSR sort gate): high polyreactivity

QVQLVESGGGIVQAGGSLRISCAASGRIFSTYAMGWYRQAPGKERELVAAINKIGGSTYYADSVKGRFTISRDNAKNTVYLQMNSLKPEDTAVYYCAADAPYYPVRRYYYWGQGTQVTVSS
polyreactivity (PSR sort gate): low polyreactivity

QVQLVESAGGLVQAGGSLSLSCAASGLTFHYYHMGWYRQATGKETELVAAITSSGGRTYYADSVKGRFTISRDNEKNTVFLQMNSLKPEDTAVYFCAADIYPDWIYLLYGYWGQGTQVTVSS
polyreactivity (PSR sort gate): low polyreactivity

QVQLVESGGGLVQAGGSLRLSCAAYGRTIPIYAMGWYRQAPGKEREFVAGINWSGGSTSYADSVKGRFTISRDNAKNTVYLQMNSLKPEDTAVYYCDADKYYRYNYWGQGTQVTVSS
polyreactivity (PSR sort gate): high polyreactivity

QVQHVESGGGLVQAGGSLLLSCAASGFIFKSNAMGWYRQAPGKERELVAAITSSGGRTYYADSVKGRFTISRDNAKNTVYLQMNSLKPEDTAVYYCAADIALGRYYYWGQGTQVTVSS
polyreactivity (PSR sort gate): high polyreactivity

QVQLVESGGGLVQAGGSLRLICAASGRIFYGYAMGWYRQAPGKEREFVAAITVSAGSTYYADSVKGRFTISRDYAKNTVYLQMNSLKPEDTAVYYCAAKRYVYPSYRFDYWGQGTQVTVSS
polyreactivity (PSR sort gate): low polyreactivity

QVQLVESGGGLVQAGGSLRLSCAASGFIFRRYTMGWYRQAPGKERELVATITRSVNTDYADSVKGRFTISRDNAKNTVYLHMNSLKPEDTAVYYCAARKYFYFPVAYDYWGQGTQVTVSS
polyreactivity (PSR sort gate): high polyreactivity

QVQLVESGGGLVQAGGSLRLSCAASGRTFRQYAMGWYRQAPGKERELVAAIRTNGGRTYYADSVKGRFTISRDNAKNTVYLQMNSLKPEDTAVYYCAVYDVVQGVLFDYWGQGTQVTVSS
polyreactivity (PSR sort gate): high polyreactivity

QVQLVESGGGLVQAGGSLRLSCAASGFIFRSYAMGWYRQAPGKERELVAAISRSGGSTYYADSVKGRFTISRDNAKNTVYLQMNSLKPEDTAVYYCATDGGRSTARGYGHWGQGTQVTVSS
polyreactivity (PSR sort gate): high polyreactivity

QVQLVESGGGLVQAGGSLRLSCAASGRIFIGYAMGWYRQAPGKERELVAAITSGGRTYYADSVKGRFTISRDNAKNTVYLQMNSLKPEDTAVYYCYRAAFRYRYDYWGQGTQVTVSS
polyreactivity (PSR sort gate): high polyreactivity

QVQLVESGGGLVQAGGSLRLSCAASGLTFSYYARGWYRQAPGKERELVAAISWSGDSTYYADSVKGRFTISRDNAKNTVYVQMHSLKPEDTAVYYCAVVSDFYTPYTGWPFLDYEYWGQGTQVTVSS
polyreactivity (PSR sort gate): low polyreactivity

QVQLVESGGGLVQAGGSLRLSCAASGFTFSAYAMGWYRQAPGKERELVVAISLSGGSTYYADSVKGRFTISRDNAKNTVYLQMNSLKPEDTAVYYCNADSYWHWGEWLYAPYDYWGQGTQVTVSS
polyreactivity (PSR sort gate): low polyreactivity

QVQLVESGGGLVQAGGSLRLSCAASGRTFTHYAMGWYRQAPGKERELVAAISGRGGNTYYADSVKGRFTISRDNAKNTVYLQMNSLKPEDTAVYYCNTAYVAKGYGYWGQGTQVTVSS
polyreactivity (PSR sort gate): high polyreactivity

QVQLVESGGGLVQAGGSLRLSCAASGNIFGHYAMGWYRQAPGKERELVAAISSRGGRTYYADSVKGRFTISRDNAKNTVYLQMNSLKPEDTAVYYCAHKTRQKFGYWGQGTQVTVSS
polyreactivity (PSR sort gate): high polyreactivity

QVQLVESGGGLVQAGGSLRLSCAASGIIFGYNVMGWYRQAPGKERELVAAIRYSGGSKYYADSVKGRFTISRDNAKNTVYLQMNSLKPEDTAVYYCAKAYRAAPRESYDYWGQGTQVTVSS
polyreactivity (PSR sort gate): high polyreactivity

QVQLVESGGGLVQAGGSLRLSCAASGSTFTDYAMGWYRQAPGKERELVAAIDSGGITNYADSVKGRFTISRDNAKNTVYLQMNSLKPEDTAVYYCNADSSKFYSHGEYEYWGQGTQVTVSS
polyreactivity (PSR sort gate): low polyreactivity

QVQLVESGGGLVQAGGSLRLSCAASGIIFSDNAMGWYRQAPGKERELVAAIDWSGGSTYYADSVKGRFTISRDNAKNTVYLQMNSLKPEDTAVYYSAAEYRDYVPVNDTGDYWGQGTQVTVSS
polyreactivity (PSR sort gate): low polyreactivity

QVQLVESGGGLVQAGGSLRLSCAASGNTFGNYGMGWYRQAPGKEREFVAAITSRGTSTYYADSVKGRFTISRDNAKNTVYLQMNSLKPEDTAVYYCNARPRYKYPRYDYWVQGTQVTVSS
polyreactivity (PSR sort gate): high polyreactivity

QVQLVESGGGLVQAGGSLRLSCAASGSTFGTNAMGWYRQAPGKEREFVAAISRRGGRTYYADSVKGRFTISRDNAKNTVYLQMNSLKPEDTAVYYCNAVSTGQGLYDYWGQGTQVTVSS
polyreactivity (PSR sort gate): high polyreactivity

QVQLVESGGGLVQAGGSLRLSCAASGSTFLYYAMGWYRPAPGKERELVAAISSGDSTYADSVKGRFTISRDNAKNTVYLQMNSLKPEDTAVYYCNTVLYPYWQWDYEFDYWGQGTQVTVSS
polyreactivity (PSR sort gate): low polyreactivity

QVQLVESGGGLVQAGGSLRLSCAASGSIFGTYAMGWYRQAPGKEREFVAAISWSDGSTYYADSVKGRFTISRDNAKNTVYLQMNSLKPEDTAVYYCAAKSDPYRHDYWGQGTQVTVSS
polyreactivity (PSR sort gate): low polyreactivity

QVQLVESGGGLVQAGGRLRLSCAASGRIFTYNAMGWYRQAPGKEREFVAAISSGGSTTYADSVKGRFTISRDNAKNTVYLQMNSRKPEDTAVYYCAARGWRFAIIEYEYWGQGTQVTVSS
polyreactivity (PSR sort gate): low polyreactivity

QVQLVESGGGLVQAGGSLRLSCAASGSIFDDYAMGWYRQAPGKEREKVAAISWSGGRTYYADSVKGRFTISRDTAKNTVYLQMNSLKPEDTAVYYCAATTGVRSRRYYYWGQGTQVTVSS
polyreactivity (PSR sort gate): high polyreactivity

QVQLVESGGGLVQAGGSLRLSCAASGITFYYYGMGWYRQATGKERELVAAISTGGNTNYADSVKGRFTISRDNAKNTVYLQMNSLKPEDTAVYYCAASFASKYEYWGQGTQVTVSS
polyreactivity (PSR sort gate): high polyreactivity

QVQLVESGGGLVQAGGSLRLSCAASGSTFRQYAMGWYRQAPGKERELVAAITWRGDNTYYADSVKGRFTISRDNAKNTVYLQMNSLKPEDTAVYYCAARWSYRLYWGYGYWGQGTQVTVSS
polyreactivity (PSR sort gate): low polyreactivity

QVQLVESGGGLVQAGGSLRLSCASSRNIFYLYAMGWYRQAPGKEREFSTSYADSEKGRFTISRDNAKNTVYLQMNSLKPEDTAVYYCAAYNSRGPYYYLFDYWGQGSQVTVSS
polyreactivity (PSR sort gate): low polyreactivity

QVQLVESGGGLVQAGGSLRLSCAASGFTFYANAMGWYRQAPGKERELVAAISWSGGRTYYADSVKGRFTISRDNAKNTVYLQMNSLKPEDTAVYYCAAKRWTTKNGFYEYPYYYWGQGTQVTVSS
polyreactivity (PSR sort gate): high polyreactivity

QVQLVESGGGLVQAGGSLRLSCAASGFTFSSYTMGWYRQAPGKERELVAAISRRTGRTYYADSVKGRFTISRDNAKNTVYLQMNSLKPEDTEVYYCAARPYWSYRRYDYWGQGTQVTVSS
polyreactivity (PSR sort gate): high polyreactivity

QVQLVESGGGLVQAGGCLRLSCAASGSTFSPNAMGWYRQAPGKERELVAAISVSCGTTYYADSVKGRFTISRDNAKNTVYLQMNSLKPEDTAVYYCAAKPYPTDDYWGQGTQVTVSS
polyreactivity (PSR sort gate): low polyreactivity

QVQLVESGGGLVQAGGSLRLSCAASGFIFNSYAMGGYRQAPGKERELVAAISRRGSSTYYADSVKGRFTISRDNAKNTVYLQMKSLKPEDTAVYYCAKRDLSTSWYLRDYWGQGTQVTVSS
polyreactivity (PSR sort gate): high polyreactivity

QVQLVESGGGLVQAGGSLRLSCAASGITLGYYAMGWYRQAPGKERELVAAISYSSGSTYYADSVKGRFTIARDTAKNTVYLQMNSLKPEDTAVYYCAKYVTYYLPTYSPSGKHDYWGQVTQVTVSS
polyreactivity (PSR sort gate): low polyreactivity

QVQLVESGGGLVQAGGSLRLSCAASGRTFNYYAMGWYRQAPGKERELVAAISSSGGRTYYADSVKGRFTISRDNAKNTVYLQMNSLKPEDTAVYYCAADSFYYRPEYDYWGQGTQVTVSS
polyreactivity (PSR sort gate): low polyreactivity

QVQLVESGGGLVQAGGSLRLSCAASGFIFNYYDMGWYRQAPGKERELVAAITYSVGSTYYADSVKGRFTISRDNAKNTVYLQMNSLKPEDTAVYYCNKDFLYGIYSYDYWGQGTQVTVSS
polyreactivity (PSR sort gate): high polyreactivity

QVQLVESGGGLVQAGGSLRLSCAASGFSVPLYTMGWYRQAPGKERELVAAISVTGGSTYYADSVKGRFTISRDNAQNTVYLPMNSLKPEDTAVYYCNAYLFFLNRVWSFDYWGQGTQVTVSS
polyreactivity (PSR sort gate): low polyreactivity

QVQLVESGGGLVQAGGSLRLSCAASGGTFINYAMGWYRQAPGKERELVAGISQSGDSTYYADSVKGRFTISRDNAKNTVYLQMNSLKPEDTAVYYCNADAVAQQYDWWENYDYWGQGTQVTVSS
polyreactivity (PSR sort gate): high polyreactivity

QVQLVESGGGLVQAGGSLRLSCAASGSTFSPYAMGWYRQAPGKERELVADISWPGGTTYYADSVKGRFTISRDNAKNTVYLQMNSLKPEDTAVYYCAVTYWDYTFQITYEYWGQGSQVTVSS
polyreactivity (PSR sort gate): low polyreactivity

QVQLVESGGGLVQAGGSLRLSSAASGRIFNPNGMGWYRQAPGKDRELVAVITRSGTSTYYADSVKGRFTISREYAKNTFYRQMYSLKPEDTAVYYCNAGKKYVDYGVLSSRYYWGQGTQVTVSS
polyreactivity (PSR sort gate): low polyreactivity

QVQLVESGGCLVQAGGSLRLSCAASGRTFDVYAMGWYRQAPGKERELVATIRSDGSTTYADSVKGRFTISRDNAKNTVYLQMNSLKPEDTAVYYCAADFRSGFSSSTTPVQSDWGQGTQVTVSS
polyreactivity (PSR sort gate): low polyreactivity

QVQLVESGGGLVQAGGSLRLSCAASGRTFWDYGMGWYRQAPGKERELVATISGNGGDTYYADSVKGRFTISRDNAKNTVYLQMNSLKPEDTAVYYCAADYRFYRTDRHYDYWGQGSQVTVSS
polyreactivity (PSR sort gate): low polyreactivity
